Data published in PMC10287910.

Assays:
[1] = system: ParA2 K124R (Vibrio cholerae); test: EMSA
ParA2 (Vibrio cholerae) = test: EMSA
[2] = system: ParA2-GFP (Vibrio cholerae); test: EMSA
[3] = system: ParA2 K124Q (Vibrio cholerae); test: EMSA
[4] = system: ParA2 K124E (Vibrio cholerae); test: EMSA
[5] = molecular target: ParA2 ATPase (wild type), Vibrio cholerae chromosome 2 (Vibrio cholerae); test: SEC-MALS; 40 uM ParA2 alone or pre-incubated with ADP or ATP; Superdex 200 10/300 GL; 50 mM Tris-HCl pH 7.5, 100 mM NaCl, 5.0 mM MgCl2, 0.1 mM EDTA, 1.0 mM DTT, 1.0 mM NaN3; monomer to dimer
[6] = molecular target: ParA2 ATPase (wild type), Vibrio cholerae chromosome 2 (Vibrio cholerae)

CGAGGTCGACGGTATCGATAAGCTTGATATCGAATTCCTGCAGCCCGGGGGATCCACTAGTTCTAGAGC (double strand) [Cy3-69 bp nsDNA]
Kd [1]: 47.1 nM | Kd (ParA2 (Vibrio cholerae)): 1000 nM | Kd [2]: 40 nM | Kd [3]: 138 nM | Kd [4]: 452 nM

ParA2 ATPase (wild type), Vibrio cholerae chromosome 2 (enzyme)
stoichiometry N [5]: 2

ParB2, Vibrio cholerae chromosome 2 (natural protein)
pre-steady state ATP hydrolysis rate of ParA2 (1.5 uM), stimulation by ParB2 at equimolar concentration [6]: 3 fold | pre-steady state ATP hydrolysis rate of ParA2 (1.5 uM), stimulation in the presence of both DNA and ParB2 [6]: 8 fold
